The source of these data is paper PMC4100210 (Nature communications, 2014).

One assay has as its target T1, Dvl2 FL F277A/M300A (human, UniProt O14641 1-736, F277A | M300A).
T1 sequence (looked up): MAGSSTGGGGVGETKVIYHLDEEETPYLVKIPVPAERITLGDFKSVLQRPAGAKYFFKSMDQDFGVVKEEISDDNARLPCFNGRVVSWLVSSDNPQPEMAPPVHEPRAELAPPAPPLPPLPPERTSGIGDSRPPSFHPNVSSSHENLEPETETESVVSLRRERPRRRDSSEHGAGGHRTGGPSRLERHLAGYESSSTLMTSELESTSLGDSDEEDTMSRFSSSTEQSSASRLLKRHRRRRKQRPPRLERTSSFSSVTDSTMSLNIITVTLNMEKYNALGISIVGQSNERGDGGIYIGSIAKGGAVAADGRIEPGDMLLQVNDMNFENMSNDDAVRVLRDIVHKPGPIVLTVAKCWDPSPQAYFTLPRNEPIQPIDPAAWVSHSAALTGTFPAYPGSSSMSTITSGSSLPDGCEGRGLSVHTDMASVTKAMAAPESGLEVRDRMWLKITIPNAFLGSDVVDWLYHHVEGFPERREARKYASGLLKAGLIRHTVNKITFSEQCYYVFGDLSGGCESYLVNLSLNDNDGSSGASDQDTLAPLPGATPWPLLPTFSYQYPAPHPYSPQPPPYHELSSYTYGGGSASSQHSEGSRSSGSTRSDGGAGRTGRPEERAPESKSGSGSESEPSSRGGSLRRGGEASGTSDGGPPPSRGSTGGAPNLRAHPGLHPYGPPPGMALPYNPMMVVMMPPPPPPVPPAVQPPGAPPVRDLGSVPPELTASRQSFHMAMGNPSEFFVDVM
In words: pull-down.

In the next assay the target is T2, Dvl2 full-length protein (human, UniProt O14641 1-736).
T2 sequence (looked up): T1 sequence (looked up) with A277F, A300M
In words: pull-down.

Numbering of substitutions follows the chain as printed. Ends that are not written are not given here.

B1: GST-Fz7 fusion peptide (GST-GKTLQSWRRFYHRLSHSSKGETAV) (peptide)
chain: {GST}-GKTLQSWRRFYHRLSHSSKGETAV
Turning to B1, the binding result with Dvl2 FL F277A/M300A and with Dvl2 full-length protein was “binds” in each case.
